The source of these data is PMC8285477, “The molecular basis of regulation of bacterial capsule assembly by Wzc” (Nature Communications, 2021).

Test [1] addresses Wzc^K540M4YE (E. coli E69 (O9a:K30)). Description: cryo-EM 2D classification of particles; purified protein ~1.8-2 mg/ml vitrified on grids, reference-free 2D class averages.
Test [2] has the same target. Description: cryo-EM structure; purified protein ~2 mg/ml in LMNG, apo and with ADP and Mg2+; C1 and C8 reconstructions.
In test [3] the target is Wzc^K540M (E. coli E69 (O9a:K30)). Nature of the test: negative-stain EM; purified protein around 0.05 mg/ml on carbon-coated grids, 0.75% uranyl formate.
For test [4] the target is unchanged. Description: cryo-EM structure; purified protein ~2 mg/ml in LMNG, apo and with ADP and Mg2+; C1 and C8 reconstructions.
The target of test [5] is Wzc^K540M double (717 and 718) Tyr to Glu mutant (E. coli E69 (O9a:K30)) (UniProt P76387). Description: EM (kind not stated); particles of purified Tyr to Glu mutants of Wzc^K540M on EM grids, percentage of octamers (Supplementary Fig. 8a).
The target of test [6] is Wzc^K540M triple (715, 717 and 718) Tyr to Glu mutant (E. coli E69 (O9a:K30)) (UniProt P76387). Described as above.
Test [7] addresses Wzc^K540MΔMotif3 (E. coli E69 (O9a:K30)) (UniProt P76387). Description: cryo-EM 2D classification of particles; purified protein ~1.8-2 mg/ml vitrified on grids, reference-free 2D class averages.
The next test addresses Wzb treated Wzc (E. coli E69 (O9a:K30), UniProt P76387 1-720). Described as above. Conditions: both partners purified.

Regarding “Wzc^K540M4YE (from UniProt P76387 1-720) (enzyme)”, the percent of particles that are octamers in test [1] was determined as 50%. In test [2], this molecule gave a stoichiometry N of 8.

For the molecule “Wzc^K540M (from UniProt P76387 1-720) (enzyme)”, the stoichiometry N in test [3] and in test [4] was 8 each time.

The molecule “Wzc^K540M double (717 and 718) Tyr to Glu mutant (from UniProt P76387 1-720) (enzyme)” came in with a stoichiometry N in test [5] of 8.

The molecule “Wzc^K540M triple (715, 717 and 718) Tyr to Glu mutant (from UniProt P76387 1-720) (enzyme)” returned a stoichiometry N in test [6] of 8.

In turn, “Wzc^K540MΔMotif3 (from UniProt P76387 1-720) (enzyme)” had a stoichiometry N in test [7] of 8.

B1: Wzb treated Wzc (enzyme)
chain: MTSVTSKQSTILGSDEIDLGRVIGELIDHRKLIISITSVFTLFAILYALLATPIYETDALIQIEQKQGNAILSSLSQVLPDGQPQSAPETALLQSRMILGKTIDDLNLQIQIEQKYFPVIGRGLARLMGEKPGNIDITRLYLPDSDDISNNTPSIILTVKDKENYSINSDGIQLNGVVGTLLNEKGISLLVNEIDAKPGDQFVITQLPRLKAISDLLKSFSVADLGKDTGMLTLTLTGDNPKRISHILDSISQNYLAQNIARQAAQDAKSLEFLNQQLPKVRAELDSAEDKLNAYRKQKDSVDLNMEAKSVLDQIVNVDNQLNELTFREAEVSQLYTKEHPTYKALMEKRQTLQEEKSKLNKRVSSMPSTQQEVLRLSRDVESGRAVYLQLLNRQQELNIAKSSAIGNVRIIDNAVTDPNPVRPKKTIIIVIGVVLGLIVSVVLVLFQVFLRRGIESPEQLEEIGINVYASIPISEWLTKNARQSGKVRKNQSDTLLAVGNPADLAVEAIRGLRTSLHFAMMEAKNNVLMISGASPSAGKTFISSNLAATIAITGKKVLFIDADLRKGYAHKMFGHKNDKGLSEFLSGQAAAEMIIDKVEGGGFDYIGRGQIPPNPAELLMHPRFEQLLNWASQNYDLIIIDTPPILAVTDAAIIGRYAGTCLLVARFEKNTVKEIDVSMKRFEQSGVVVKGCILNGVVKKASSYYRYGHNHYGYSYYDKK
modifications: dephosphorylated by phosphatase Wzb; about 0.1% octameric particles; C-terminal His6 omitted; the PDB entity is the K540M construct, reverted to K540 / dephosphorylated by phosphatase Wzb; about 0.1%
As to B1, the “stoichiometry N” value with Wzb treated Wzc is 8.

One may read the stoichiometry N as a count of units in the complex or per binding partner.
